Kd data for one substance are collected here from publication PMC9274624.

Common to all, as to assay: SPR
The target in assay [1] is wild Bactrian camel ACE2 extracellular domain (residues 1-740) fused with the Fc domain of mouse IgG (wild Bactrian camel).
Assay [2] addresses horse ACE2 extracellular domain (residues 1-740) fused with the Fc domain of mouse IgG (horse) (UniProt F6V9L3).
Assay [3] deals with goat ACE2 extracellular domain (residues 1-740) fused with the Fc domain of mouse IgG (goat).
Assay [4] concerns the target mink ACE2 extracellular domain (residues 1-740) fused with the Fc domain of mouse IgG (mink).
In assay [5] the target is big-eared horseshoe bat ACE2 extracellular domain (residues 1-740) fused with the Fc domain of mouse IgG (big-eared horseshoe bat).
Assay [6] concerns the target rabbit ACE2 extracellular domain (residues 1-740) fused with the Fc domain of mouse IgG (rabbit) (UniProt G1TEF4).
Assay [7] addresses fulvous fruit bat ACE2 extracellular domain (residues 1-740) fused with the Fc domain of mouse IgG (fulvous fruit bat).
For assay [8], the target named is raccoon dog ACE2 extracellular domain (residues 1-740) fused with the Fc domain of mouse IgG (raccoon dog) (UniProt B4XEP4).
For assay [9], the target named is fox ACE2 extracellular domain (residues 1-740) fused with the Fc domain of mouse IgG (fox).
The target in assay [10] is monkey ACE2 extracellular domain (residues 1-740) fused with the Fc domain of mouse IgG (monkey) (UniProt F7AH40).
Assay [11] deals with sheep ACE2 extracellular domain (residues 1-740) fused with the Fc domain of mouse IgG (sheep).
For assay [12], the target named is alpaca ACE2 extracellular domain (residues 1-740) fused with the Fc domain of mouse IgG (alpaca).
For assay [13], the target named is pig ACE2 extracellular domain (residues 1-740) fused with the Fc domain of mouse IgG (pig) (UniProt K7GLM4).

For orientation: Kd means the concentration at which binding is half-saturated. Consider “SARS-CoV-2 Delta RBD (residues 319-541) (from UniProt P0DTC2 319-541) (domain or fragment)”, for which the Kd in [1] came to 233 nM; in assay [2], 79 nM; in assay [3], 66.2 nM; in [4] it was 288 nM; in assay [5], 49.6 nM; in assay [6], 58.3 nM. Moreover, the Kd in assay [7] stood at 200 nM; in assay [8], 124 nM; in assay [9] it was 35.6 nM; in assay [10] it was 16.5 nM; in assay [11], 61 nM; in [12], 381 nM. Also, in [13], the Kd was determined as 64.4 nM.
